The values below come from PMC4083444 (Nature Communications, 2014).

This data set deals with the molecule itself. Put plainly: crystal structure.

B1: TmCdsA S200C/S223C double-cysteine mutant (enzyme, Thermotoga maritima, UniProt Q9X1B7 1-270, looked up)
chain: MDDLKTRVITASVVAPFVVLCFVSYESLIGLVSAILILAGYELITLEMKERDARFFYVILLALYPVLYGLVFEEPTQPLSILFITGVVFSLITDKDPSQVFKTVAAFSIALIYVTFFLSFFLPIYRDFGAANALLVLTSTWVFDSFAYFTGLKFGRTRISPRYSPRKSLEGVIGGFLGVVIYTFLYRLVVNDLLSVNVICFRTFLPFAATVAIMDTFGDIFECALKRHYGVKDSGKTLPGHGGMLDRIDGLLFVAPVSYIVFKILEGVVR
modifications: mercury labels (CH3HgCl) bound to the endogenous and engineered Cys residues in the crystal
Consider B1, for which the binding result is on record as “binds”.

B2: TmCdsA S200C/S258C double-cysteine mutant (enzyme, Thermotoga maritima, UniProt Q9X1B7 1-270, looked up)
chain: MDDLKTRVITASVVAPFVVLCFVSYESLIGLVSAILILAGYELITLEMKERDARFFYVILLALYPVLYGLVFEEPTQPLSILFITGVVFSLITDKDPSQVFKTVAAFSIALIYVTFFLSFFLPIYRDFGAANALLVLTSTWVFDSFAYFTGLKFGRTRISPRYSPRKSLEGVIGGFLGVVIYTFLYRLVVNDLLSVNVICFRTFLPFAATVAIMDTFGDIFESALKRHYGVKDSGKTLPGHGGMLDRIDGLLFVAPVCYIVFKILEGVVR
B2: the binding result is recorded as “binds”.
